What was measured:
Type in all cases: biochemical
[1] = system: Bz-PGGYRAHAG-OH (acyl donor) / H-RAHAK(DNP)-OH (acyl acceptor); experiment: Maximum product yield of transamidation (Table 7); settings: Zinc ions (100 μM): no; two equivalents of acyl acceptor and 250 μM acyl donor
Method: (§1) Model transamidation reactions were performed in a solution containing 15 to 250 μM acyl donor, 2 eq. of the corresponding acyl acceptor, varying concentrations of trypsin variant, 100 mM HEPES/NaOH pH 7.8, ±0.1 mM ZnC12, 100 mM NaCl, 10 mM CaCl2) at 30° C. Acyl donor and acyl acceptor had the same amino acids in P1′-P3′ position, e.g. Bz-[…]+H-RAHAK-OH or Bz-[…]+H-RKKAK-OH. Variations are indicated. The acyl acceptor could be equipped with a 2,4-Dinitrophenyl group (DNP) at the side chain of the terminal lysine, e.g. H-RAHAK(DNP)-OH or H-RKKAK(DNP)-OH. The reactions were started by the addition of enzyme. To record the time course of product formation and/or for kinetic evaluation of the reaction several aliquots of the reaction mixture were quenched with 25% (v/v) acetic acid at distinct time points within up to 4 hours. The composition of the reaction mixture was analyzed by UPCL with method I or II, depending on the absence (method 1) or presence (method II) of a 2,4-dinitrophenyl group within the acyl acceptor (see example 1). Measurements were performed as duplicates and errors were less than 5%.

[2] = system: Bz-PGGYRAHAG-OH / RAHAK-OH (YRAH substrate); experiment: Enzymatic activity and maximum product yield of Trypsiligase II-library variants, YRAH substrate; settings: for AS A[YRAH]/AS A + H[YRAH] / YRAH/YRKH, quotient of max. product yield for YRAH subtrate/YRKH substrate: Table 3; for Pmax vs YRAH (%): Table 3, first column group
Method: as §1
(§2) On the basis of these investigations the mutated positions of these two variants 2G10 and 1C11 have been combined in a new enzyme library based on trypsin variant Y39H/Y59H/K60E/D189K (Trypsiligase II), so that the variants resulting from this library benefit from both positive effects and are thus further optimized. Accordingly, positions 40, 55, 96, 97, 143, 151, 190, 192, 214, 219 and 221 were randomized in this Trypsiligase II library, while the mutation L99F was fixed because it was present in both Trypsiligase I libraries A and B. Positions 143 and 151 in Trypsiligase I are responsible for zinc complexation and thus convey histidine specificity for the recognition sequence YRH. In Trypsiligase II, this histidine specificity is shifted by positions 39 and 59, resulting in the recognition sequence YRAH. Thus, positions 143 and 151, which are potentially responsible for P2′ position specificity, are available for randomization in the Trypsiligase II library. In addition to the desired effect of increasing the affinity to the substrate/nucleophile, this could also lead to a possible independence of zinc complexation, which would be desirable with regard to the application-oriented modification of recombinant proteins. Using phage display and an ELISA-based screening, the Trypsiligase II variants illustrated in Table 3 and 4 have been identified.

[3] = system: H-RAHAK(DNP)-OH (acyl acceptor), acyl donor Bz-PGGYRAHAG-OH; experiment: KM value of the nucleophilic peptide (acyl acceptor); settings: for Km: Zinc ions: no, 250 μM Bz-PGGYRAHAG-OH, varying H-RAHAK(DNP)-OH
Method: For Trypsiligase II the measurements for KM values of the nucleophilic peptide (acyl acceptor) were carried out in the presence or absence of zinc ions due to its strong zinc ion dependency. In case of variant A2C8 measurements were carried out in the absence of zinc ions.
Transamidation reactions with Trypsiligase II and variant A2C8 were performed in a solution containing 250 μM of the acyl donor Bz-[…]-OH, varying concentrations of the acyl acceptor H-RAHAK(DNP)-OH (0-5000 μM for Trypsiligase II in the absence of zinc ions, 0-1500 μM for Trypsiligase II in the presence of zinc ions, 0-1000 μM for variant A2C8), 0.2-1.5 μM trypsin variant, 100 mM HEPES/NaOH pH 7.8, ±0.1 mM ZnCl2, 100 mM NaCl, 10 mM CaCl2 at 30° C. The reaction was started by the addition of enzyme. For kinetic evaluation of the reaction several aliquots of the reaction mixture were quenched with 25% (v/v) acetic acid at distinct time points within 30 minutes. The composition of the reaction mixture was analyzed by UPCL using method II (see example 1). UV absorption of the 2,4-Dinitrophenyl group (DNP), which is present in the acyl acceptor as well as in the aminolysis product, was detected at 360 nm. To determine the KM value of the nucleophilic peptide the initial rates for the aminolysis reaction were plotted against the corresponding acyl acceptor concentration and fitted to the Michaelis Menten equation. Measurements were performed as duplicates and errors were less than 5%.

[4] = system: Bz-PGGYRKHAG-OH / RKHAK-OH (YRKH substrate); experiment: Enzymatic activity and maximum product yield of Trypsiligase II-library variants, YRKH substrate; settings: for PPmax vs YRAH (%): 100 μM Bz-PGGYR(A/K)HAG-OH, 200 μM R(A/K)HAK-OH, 100 μM ZnCl2, pH 7.8, 30° C.
Method: as §1, §2

[5] = system: Bz-PGGYRAHAG-OH (acyl donor); experiment: Turnover rate of the hydrolysis reaction in the absence of a nucleophilic peptide
Method: Hydrolysis reactions were performed in a solution containing varying concentrations of the acyl donor Bz-[…]-OH (0-5000 μM for Trypsiligase II, 0-1500 μM for variant A2C8), 2 μM trypsin variant, 100 mM HEPES/NaOH pH 7.8, 100 mM NaCl, 10 mM CaCl2 at 30° C. In case of Trypsiligase II the reactions were performed in the presence of 100 μM ZnCl2. The reaction was started by the addition of enzyme. For kinetic evaluation of the reaction several aliquots of the reaction mixture were quenched with 25% (v/v) acetic acid at distinct time points within 30 minutes. The composition of the reaction mixture was analyzed by UPCL using method I (see example 1). UV absorption of the N-terminal benzoyl-group (Bz-), which is present in the acyl donor as well as in the hydrolysis product, was detected at 254 nm. To determine the turnover rate of the hydrolysis reaction (kcat,HL) the initial rates for the hydrolysis reaction were plotted against the corresponding acyl donor concentration and fitted to the Michaelis Menten equation. Measurements were performed as duplicates and errors were less than 5%.

[6] = 100 μM Bz-PGGYR(A/K)HAG-OH, 200 μM R(A/K)HAK-OH, 100 μM ZnCl2, pH 7.8, 30° C.
[7] = Table 3, group (YRAH), 100 μM ZnCl2

B1: Trypsiligase II (trypsin variant Y39H/Y59H/K60E/D189K) (protein)
chain: IVGGYTCQENSVPYQVSLNSGHHFCGGSLINDQWVVSAAHCHESRIQVRLGEHNINVLEGNEQFVNAAKIIKHPNFDRKTLNNDIMLIKLSSPVKLNARVATVALPSSCAPAGTQCLISGWGNTLSSGVNEPDLLQCLDAPLLPQADCEASYPGKITDNMVCVGFLEGGKKSCQGDSGGPVVCNGELQGIVSWGYGCALPDNPGVYTKVCNYVDWIQDTIAAN
- product yield (%) [1]: 4.2%
- AS A[YRAH]/AS A + H[YRAH] [2]: 0.1
- YRAH/YRKH, quotient of max. product yield for YRAH subtrate/YRKH substrate [2]: 6.0
- Pmax vs YRAH (%) [2, 6]: 8.9%
- AS A/H, quotient of aminolysis/hydrolysis activity ([2]; Table 3, group (YRAH)): 0.3
- AS[AL] (mkat/mol), specific aminolysis activity [2, 7]: 2.4 mkat/mol
- AS[HL] (mkat/mol), specific hydrolysis activity [2, 7]: 7.8 mkat/mol
- AS A/H, quotient of aminolysis/hydrolysis activity ([2]; Table 4): 0.3
- PPmax vs YRAH (%) ([2]; Table 4, 100 μM Bz-PGGYR(A/K)HAG-OH, 200 μM R(A/K)HAK-OH, 100 μM ZnCl2, pH 7.8, 30° C.): 8.9%
- AS[AL] (mkat/moL), specific aminolysis activity ([2]; Table 4, 100 μM ZnCl2): 2.4 mkat/moL
- AS[HL] (mkat/moL), specific hydrolysis activity ([2]; Table 4, 100 μM ZnCl2): 7.8 mkat/moL
- Km [3]: 1630 µM
- AS A/H, quotient of aminolysis/hydrolysis activity ([4]; Table 3): 0.0
- PPmax vs YRAH (%) ([4]; Table 3): 1.5%
- AS[AL] (mkat/moL), specific aminolysis activity ([4]; Table 3, 100 μM ZnCl2): 0.5 mkat/moL
- AS[HL] (mkat/moL), specific hydrolysis activity ([4]; Table 3, 100 μM ZnCl2): 16.3 mkat/moL
- AS A/H, quotient of aminolysis/hydrolysis activity ([4]; Table 4): 0.0
- AS A[YRAH]/AS A + H[YRAH] ([4]; Table 4): 0.0
- YRAH/YRKH, quotient of max. product yield ([4]; Table 4): 0.2
- PPmax vs YRAH (%) ([4]; Table 4): 1.5%
- AS[AL] (mkat/mol), specific aminolysis activity ([4]; Table 4, 100 μM ZnCl2): 0.5 mkat/mol
- AS[HL] (mkat/mol), specific hydrolysis activity ([4]; Table 4, 100 μM ZnCl2): 16.3 mkat/mol

B2: A2C8: Trypsiligase II + H40F, A55A, R96E, K97D, L99F, N143E, E151Y, S190V, Q192A, S214G, G219Q, A221T (protein)
chain: IVGGYTCQENSVPYQVSLNSGHFFCGGSLINDQWVVSAAHCHESRIQVRLGEHNINVLEGNEQFVNAAKIIKHPNFDEDTFNNDIMLIKLSSPVKLNARVATVALPSSCAPAGTQCLISGWGETLSSGVNYPDLLQCLDAPLLPQADCEASYPGKITDNMVCVGFLEGGKKVCAGDSGGPVVCNGELQGIVGWGYQCTLPDNPGVYTKVCNYVDWIQDTIAAN
- reduction in the enzyme's hydrolysis activity versus Trypsiligase II (factor) [5]: 7
- product yield (%) [1]: 59.7%
- AS A[YRAH]/AS A + H[YRAH] [2]: 1.6
- YRAH/YRKH, quotient of max. product yield for YRAH subtrate/YRKH substrate [2]: 1.0
- Pmax vs YRAH (%) [2, 6]: 53.1%
- AS A/H, quotient of aminolysis/hydrolysis activity ([2]; Table 3, group (YRAH)): 10.9
- AS[AL] (mkat/mol), specific aminolysis activity [2, 7]: 15.8 mkat/mol
- AS[HL] (mkat/mol), specific hydrolysis activity [2, 7]: 1.5 mkat/mol
- improvement of the enzyme affinity for the nucleophilic peptide versus native Trypsiligase II (factor) ([3]; Trypsiligase II in the absence of zinc ions): 92
- improvement of the enzyme affinity for the nucleophilic peptide versus native Trypsiligase II (factor) ([3]; Trypsiligase II in the presence of zinc ions): 8
- Km [3]: 17.6 µM
- AS A/H, quotient of aminolysis/hydrolysis activity ([4]; Table 3): 6.9
- PPmax vs YRAH (%) ([4]; Table 3): 51.3%
- AS[AL] (mkat/moL), specific aminolysis activity ([4]; Table 3, 100 μM ZnCl2): 8.9 mkat/moL
- AS[HL] (mkat/moL), specific hydrolysis activity ([4]; Table 3, 100 μM ZnCl2): 1.3 mkat/moL

Source: US20220235344A1, “TRYPSIN VARIANTS WITH IMPROVED ENZYMATIC PROPERTIES” (BIOPHARMA TRANSLATIONSINSTITUT DESSAU FORSCHUNGS GMBH, priority 2018, published 2022)
